One molecule from patent US20090269346A1 (RAPTOR PHARMACEUTICAL, published 2009) can be followed below.

Assay [1] addresses T1, LRP2 CR89 (human, UniProt P98164 1025-1102).
T1 construct: domain: CR8 and CR9; also called YVWR; L2 CR89; not shown: N-terminal hexahistidine and S-peptide from pET30(+)a
Briefly: solid-phase assay, coated CR protein, anti-RAP, OD450. The protocol:
(§1) Solid phase binding assays-Purified, refolded CR protein (1 μg) was bound to Nunc Maxisorp™ 96-well plates in TBS pH 8 supplemented with 5 mM CaCl₂ (TBSC) overnight at 4° C. Wells were washed with TBSC and then blocked with TBSC containing 2% bovine serum albumin (BSA). RAP ligands were then incubated with the immobilized receptor at a range of concentrations for 2 hours in the above blocking buffer supplemented with 0.05% Tween-20 at room temperature. Control wells contained no added ligand. As an additional control, to determine whether the absence of calcium affected binding, 10 mM EGTA was included in the incubation medium for some samples. Wells were washed with TBSTC and bound ligands detected with polyclonal anti-RAP (BP41/42, 1:1,000, BioMarin). Excess primary antibody was removed and wells washed before incubation with the secondary antibody, HRP-conjugated goat anti rabbit IgG (Bio-Rad). After washing, TMB substrate solutions (Bio-Rad) were added to detect HRP. Color development was stopped with 1N HCl. Absorption at 450 nm was measured with a microplate spectrophotometer (Molecular Devices). Data were plotted and Kd values derived by non-linear regression with the assumption of single-site binding (GraphPad Prism).
(§2) Additional assays were performed to assess the binding of wild-type RAP d3 (SEQ ID NO: 92) to each CR pair or set of overlapping pairs was then measured by solid-phase assay (FIG. 5B). Diluted samples were incubated with each test protein, immobilized in multiwell plates. Binding assays were performed as described in Methods. Two independent experiments were performed with triplicate wells for each sample. Means and standard deviations were calculated from the combined values from both experiments and plotted against ligand concentration. Curves were fitted using non-linear regression with a single-site binding model (GraphPad Prism). Kd values with standard deviations were derived from the fitted curves. In all cases, 10 mM EGTA removed >85% of the mean binding signal at the highest concentration of ligand tested.

Assay [2] has as its target T2, LRP1 CR3-5 (human).
T2 construct: range 852-973; Amplified from human cDNA; also called L1 CR3-5
The description is as above. The procedure:
as §1, §2

A further assay deals with T3, VLDLR CR6-8 (human, UniProt P98155 235-358).
T3 construct: range 235-358; also called V CR6-8; not shown: N-terminal hexahistidine and S-peptide from pET30(+)a
Described as above. The protocol: as §1, §2

Assay [3] addresses T2, LRP1 CR3-5. Briefly: solid-phase assay, coated CR protein, anti-RAP, OD450; apparent Kd repeated from Table 1; unit inferred, nM taken from paragraph 284.
A further assay addresses T4, LRP2 CR89 R1088D (human, UniProt P98164 1022-1105).
T4 construct: also called YVWD
Briefly: solid-phase binding assay: CR protein coated on the plate, ligand titrated, anti-RAP polyclonal and HRP secondary, OD 450 nm. The procedure: as §1
(§3) One premise of this work was that amino acids at A, C, A′ and C′ within the calcium-binding loops of a CR pair were key determinants of binding affinity for RAP and would be similarly important for binding of RAP variants. To test this idea, we prepared mutants of LRP2 CR89 in which the native, non-canonical residues at these positions were sequentially substituted with the non-native, canonical residues. As defined above, the A, C, A′, C′ string for LRP2 CR89 is YVWR. Mutants included LRP2 CR89 Y1042W (WVWR), LRP2 CR89 V1047D (YDWR), LRP2 CR89 R1088D (YVWD), LRP2 CR89 V1047D R1088D (YDWD), LRP2 CR89 Y1042W V1047D R1088D (WDWD), LRP2 CR89 Y1042W V1047D (WDWR), LRP2 CR89 Y1042W R1088D (WVWD). Binding to both RAP d3 and RAPv2A d3 were measured for each LRP2 CR89 mutant by solid-phase assay. Samples were tested in triplicate. OD values from uncoated wells, receptor-coated wells incubated with buffer alone, and uncoated wells incubated with the highest ligand concentration all gave similar values for all conditions tested.

A further assay has as its target T5, LRP2 CR89 V1047D R1088D (human, UniProt P98164 1022-1105).
T5 construct: also called YDWD
T5 chain: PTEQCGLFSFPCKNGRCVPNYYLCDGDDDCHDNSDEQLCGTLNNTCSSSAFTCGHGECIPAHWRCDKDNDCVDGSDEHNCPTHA
The assay is described as above. The procedure: as §1, §3

Another assay concerns the target T6, LRP2 CR89 Y1042W (human, UniProt P98164 1022-1105).
T6 construct: also called WVWR
T6 chain: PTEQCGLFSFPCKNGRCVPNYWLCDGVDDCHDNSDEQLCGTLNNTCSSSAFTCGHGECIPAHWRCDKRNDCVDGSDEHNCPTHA
The description is as above. The protocol:
as §1, §3

The next assay concerns the target T7, LRP2 CR89 V1047D (human, UniProt P98164 1022-1105).
T7 construct: also called YDWR
T7 chain: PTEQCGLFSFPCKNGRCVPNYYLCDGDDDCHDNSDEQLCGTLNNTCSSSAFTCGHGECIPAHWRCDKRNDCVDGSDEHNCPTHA
The assay is described as above. The protocol:
as §1, §3

The target in assay [4] is T1, LRP2 CR89. Nature of the assay: solid-phase assay, coated CR protein, anti-RAP, OD450. The protocol:
(§4) Percent of maximum binding is the ratio of the OD at the highest concentration tested for each ligand and the highest OD measured for all such ligands at that concentration.
as §1
(§5) Next, binding of RAP d3 and RAPv2A d3 proteins to LRP1 CR3-5 and LRP2 CR89 was assessed. In order to understand the relative contributions of each RAPv2A d3 mutation to differences in affinity, we also prepared a number of RAPv2A d3 revertants and RAP d3 forward mutants, all comprising sequence variants intermediate between RAPv2A d3 and wild-type RAP d3 (FIGS. 7A and B, Table 1). Samples were tested in triplicate and experiments were repeated at least once. Values from different experiments were combined and a single mean and standard deviation obtained for each concentration of ligand tested.
This is another data set of the same source.

Assay [5] concerns the target T2, LRP1 CR3-5. The description is as above. The procedure:
as §4, §1, §5
This is another data set of the same source.

T2 sequence (Q07954 852-973): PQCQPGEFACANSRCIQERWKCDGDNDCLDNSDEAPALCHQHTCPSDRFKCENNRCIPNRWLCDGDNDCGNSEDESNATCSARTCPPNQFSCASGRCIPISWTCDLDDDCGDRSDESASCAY
T1 sequence (P98164 1025-1102): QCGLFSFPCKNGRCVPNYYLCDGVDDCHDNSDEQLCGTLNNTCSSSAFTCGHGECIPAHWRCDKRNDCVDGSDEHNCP

B1: wild-type RAP d3 (ligand)
chain: LDRLRRVSHQGYSTEAEFEEPRVIDLWDLEQSANLTDKELEAFREELKHFEAKIEKHNHYQKQLEIAHEKLRHAESVGDGERVSRSREKHALLEGRTKELGYTVKKHLQDLSGRISRAR
notes: expressed in E. coli from pET30(+)a; not shown: vector-encoded N-terminal tags of pET30(+)a (hexahistidine and S-peptide, as stated for the CR constructs)
Take B1: the Kd in the assay with LRP2 CR89 [1] is greater than 300 nM; with LRP1 CR3-5 [2] it was 11 nM; with VLDLR CR6-8 it was greater than 300 nM; with LRP1 CR3-5 [3] it was 16 nM; with LRP1 CR3-5 [5], 16 nM. The binding result with LRP2 CR89 R1088D, in the assay with LRP2 CR89 V1047D R1088D, in the assay with LRP2 CR89 Y1042W and with LRP2 CR89 V1047D was “no binding (tested: 100 nM)” in each case. Besides, the “% max (percent of maximum binding)” value came to 5% with LRP2 CR89 [4] and 76% with LRP1 CR3-5 [5].
